{
  "source": "patent US11584938B2",
  "about": "“Plant EPSPS mutant containing L195P and S247G mutations and encoding gene and use thereof” (GEVOTO LLC, priority 2017, dated 2023)",
  "tested_on": "double knockout E. coli (EPSPS defective E. coli, EDCE)",
  "assay": "growth of EPSPS defective E. coli transformed by the EPSPS gene in M9 culture media containing different glyphosate concentrations",
  "assay_type": "cell-based, E. coli DH5α",
  "source_text": "A method for detecting the glyphosate resistance of the soybean EPSPS mutant G1 provided in Example 1 and the soybean EPSPS mutant G3 provided in Example 2 is as follows:\naccording to the sequence of the nucleic acid molecule provided in the example, synthesizing the encoding gene that encodes the soybean EPSPS mutant G1 or G3 using a chemical synthesis method, introducing enzyme sites (Pac1 and Sbf1) at two ends thereof, connecting to an expression vector (for example, a pADV5 vector, the structure of which is as shown in FIG. 15) that has undergone the same restriction enzyme digestion treatment under the action of ligase after restriction enzyme digestion, then transforming double knockout E. coli, picking positive colonies after verification, inoculating the positive colonies to M9 culture media containing different glyphosate concentrations for growth, and observing the growth situation of the E. coli.\nThe wild-type soybean EPSPS (with an amino acid sequence represented by SEQ ID NO: 2 and an encoding gene sequence represented by SEQ ID NO: 1) and the soybean EPSPS mutant G2 (with an amino acid sequence represented by SEQ ID NO: 6, and a corresponding encoding gene sequence represented by SEQ ID NO: 5) merely containing the mutation P114(101)S were taken as controls.\nIn the above, the M9 basal culture medium can be prepared by the following method:\n5×M9 salt solution: 6.78 g of Na2HPO4, 3.0 g of KH2PO4, 0.5 g of NaCl, and 1.0 g of NH4Cl were weighed, added with ddH2O to 200 ml, and subjected to high-temperature and high-pressure sterilization treatment;\n20% glucose: 20 g of glucose was weighed, added with 80 ml of ddH2O for dissolving, diluted to 100 ml, and subjected to filtration and sterilization treatment;\n1.0 M MgSO4: 24.6 g of MgSO4-7H2O was weighed, dissolved with 80 ml of ddH2O, diluted to 100 ml, and subjected to sterilization treatment;\n1.0 M CaCl2: 11.1 g of CaCl2 was weighed, dissolved with 80 ml of ddH2O, diluted to 100 ml, and subjected to sterilization treatment; and\n1000 ml of the M9 basal culture media were prepared by adding ddH2O to 200 ml of 5×M9 salt solution, 20 ml of 20% glucose, 2 ml of 1.0 M MgSO4 and 0.1 ml of 1.0 M CaCl2 to make up to 1000 ml.\nIn the above, the E. coli used was double knockout E. coli, namely, EPSPS defective E. coli (E. coli DH5α with EPSPS gene and C-P Lyase gene being knocked out, named as EDCE, wherein for a preparation method thereof, reference can be made to a Chinese invention patent with the filing number CN2016103256926).\nThe glyphosate resistance of the soybean EPSPS mutant G4 provided in Example 3 and the soybean EPSPS mutant G5 provided in Example 4 was verified with reference to the detection method in Experiment Example 1.\nThe wild-type wheat EPSPS (with an amino acid sequence represented by SEQ ID NO: 14, and a corresponding encoding gene sequence represented by SEQ ID NO: 13) and the wheat EPSPS mutant T2 (with an amino acid sequence represented by SEQ ID NO: 18, and a corresponding encoding gene sequence represented by SEQ ID NO: 17) merely containing the mutation P118(101)S were taken as controls to verify the glyphosate resistance of the wheat EPSPS mutants T1 and T3 provided in Example 5 and Example 6, and reference can be made to Experiment Example 1 for the method.\nA method for verifying the glyphosate resistance of the wheat EPSPS mutants T4, T5, and T6 provided in Examples 7-9 is the same as that in Experiment Example 3.\nThe wild-type rice EPSPS R0 (with an amino acid sequence represented by SEQ ID NO: 28, and a corresponding encoding gene sequence represented by SEQ ID NO: 27) and the rice EPSPS mutant R2 (with an amino acid sequence represented by SEQ ID NO: 32, and a corresponding encoding gene sequence represented by SEQ ID NO: 31) merely containing the mutation P116(101)S were taken as controls to verify the glyphosate resistance of the rice EPSPS mutants R1 and R3 provided in Examples 10 and 11, and reference can be made to Experiment Example 1 for the method. […]",
  "key": {"[1]": {"settings": "culture media containing 0 mM glyphosate"}, "[2]": {"settings": "culture media containing 1 mM glyphosate"}, "[3]": {"settings": "culture media containing 5 mM glyphosate"}, "[4]": {"settings": "culture media containing 10 mM glyphosate"}, "[5]": {"settings": "culture media containing 20 mM glyphosate"}},
  "data": [
    {"molecule": "G0: wild-type soybean EPSPS, amino acid sequence SEQ ID NO: 2; control (protein, Glycine max, control) MAAAEKPSTAPEIVLEPIKDISGTITLPGSKSLSNRILLLAALSEGTTVVDNLLYSEDIHYMLGALRTLGLRVEDDQTTKQAIVEGCGGLFPTIKESKDEINLFLGNAGTAMRPLTAAVVAAGGNASYVLDGVPRMRERPIGDLVAGLKQLGADVDCFLGTNCPPVRVNGKGGLPGGKVKLSGSVSSQYLTALLMAAPLALGDVEIEIVDKLISVPYVEMTLKLMERFGVSVEHSGDWDKFLVHGGQKYKSPGNAFVEGDASSASYFLAGAAVTGGTITVNGCGTSSLQGDVKFAEVLEKMGAKVTWSENSVTVTGPPQDSSGQKVLQGIDVNMNKMPDVAMTLAVVALFANGQTTIRDVASWRVKETERMIAICTELRKLGATVEEGPDYCVITPPEKLNVTAIDTYDDHRMAMAFSLAACGDVPVTIKDPGCTRKTFPDYFEVLERFTRH", "values": [
      {"measurement": "growth of the E. coli transformed by the EPSPS", "setting": "[1]", "result": "could grow"},
      {"measurement": "growth of the E. coli transformed by the EPSPS", "setting": "[2]", "result": "substantially could not grow"},
      {"measurement": "growth of the E. coli transformed by the EPSPS", "setting": "[3]", "result": "substantially could not grow"}
    ]},
    {"molecule": "G5: soybean EPSPS mutant, SEQ ID NO: 12, mutations S265(247)G and P114(101)S (protein) MAAAEKPSTAPEIVLEPIKDISGTITLPGSKSLSNRILLLAALSEGTTVVDNLLYSEDIHYMLGALRTLGLRVEDDQTTKQAIVEGCGGLFPTIKESKDEINLFLGNAGTAMRSLTAAVVAAGGNASYVLDGVPRMRERPIGDLVAGLKQLGADVDCFLGTNCPPVRVNGKGGLPGGKVKLSGSVSSQYLTALLMAAPLALGDVEIEIVDKLISVPYVEMTLKLMERFGVSVEHSGDWDKFLVHGGQKYKSPGNAFVEGDASSAGYFLAGAAVTGGTITVNGCGTSSLQGDVKFAEVLEKMGAKVTWSENSVTVTGPPQDSSGQKVLQGIDVNMNKMPDVAMTLAVVALFANGQTTIRDVASWRVKETERMIAICTELRKLGATVEEGPDYCVITPPEKLNVTAIDTYDDHRMAMAFSLAACGDVPVTIKDPGCTRKTFPDYFEVLERFTRH", "values": [
      {"measurement": "growth of the E. coli transformed by the EPSPS", "setting": "[1]", "result": "could grow"},
      {"measurement": "growth of the E. coli transformed by the EPSPS", "setting": "[4]", "result": "could grow"},
      {"measurement": "growth of the transformed E. coli compared with E. coli transformed by the control EPSPS named in the value", "setting": "[4]", "result": "obviously superior to that of the E. coli transformed by G2"}
    ]},
    {"molecule": "G4: soybean EPSPS mutant, SEQ ID NO: 10, mutation S265(247)G (protein) MAAAEKPSTAPEIVLEPIKDISGTITLPGSKSLSNRILLLAALSEGTTVVDNLLYSEDIHYMLGALRTLGLRVEDDQTTKQAIVEGCGGLFPTIKESKDEINLFLGNAGTAMRPLTAAVVAAGGNASYVLDGVPRMRERPIGDLVAGLKQLGADVDCFLGTNCPPVRVNGKGGLPGGKVKLSGSVSSQYLTALLMAAPLALGDVEIEIVDKLISVPYVEMTLKLMERFGVSVEHSGDWDKFLVHGGQKYKSPGNAFVEGDASSAGYFLAGAAVTGGTITVNGCGTSSLQGDVKFAEVLEKMGAKVTWSENSVTVTGPPQDSSGQKVLQGIDVNMNKMPDVAMTLAVVALFANGQTTIRDVASWRVKETERMIAICTELRKLGATVEEGPDYCVITPPEKLNVTAIDTYDDHRMAMAFSLAACGDVPVTIKDPGCTRKTFPDYFEVLERFTRH", "values": [
      {"measurement": "growth of the E. coli transformed by the EPSPS", "setting": "[1]", "result": "could grow"},
      {"measurement": "growth of the transformed E. coli compared with E. coli transformed by the control EPSPS named in the value", "setting": "[3]", "result": "superior to that of the E. coli transformed by G0"}
    ]},
    {"molecule": "G2: soybean EPSPS mutant, SEQ ID NO: 6, merely containing the mutation P114(101)S; control (protein) MAAAEKPSTAPEIVLEPIKDISGTITLPGSKSLSNRILLLAALSEGTTVVDNLLYSEDIHYMLGALRTLGLRVEDDQTTKQAIVEGCGGLFPTIKESKDEINLFLGNAGTAMRSLTAAVVAAGGNASYVLDGVPRMRERPIGDLVAGLKQLGADVDCFLGTNCPPVRVNGKGGLPGGKVKLSGSVSSQYLTALLMAAPLALGDVEIEIVDKLISVPYVEMTLKLMERFGVSVEHSGDWDKFLVHGGQKYKSPGNAFVEGDASSASYFLAGAAVTGGTITVNGCGTSSLQGDVKFAEVLEKMGAKVTWSENSVTVTGPPQDSSGQKVLQGIDVNMNKMPDVAMTLAVVALFANGQTTIRDVASWRVKETERMIAICTELRKLGATVEEGPDYCVITPPEKLNVTAIDTYDDHRMAMAFSLAACGDVPVTIKDPGCTRKTFPDYFEVLERFTRH", "values": [
      {"measurement": "growth of the E. coli transformed by the EPSPS", "setting": "[1]", "result": "could grow"},
      {"measurement": "growth of the E. coli transformed by the EPSPS", "setting": "[4]", "result": "could grow"},
      {"measurement": "growth of the E. coli transformed by the EPSPS", "setting": "[5]", "result": "could grow"}
    ]},
    {"molecule": "G3: soybean EPSPS mutant, SEQ ID NO: 8, mutations L212(195)P and P114(101)S (protein) MAAAEKPSTAPEIVLEPIKDISGTITLPGSKSLSNRILLLAALSEGTTVVDNLLYSEDIHYMLGALRTLGLRVEDDQTTKQAIVEGCGGLFPTIKESKDEINLFLGNAGTAMRSLTAAVVAAGGNASYVLDGVPRMRERPIGDLVAGLKQLGADVDCFLGTNCPPVRVNGKGGLPGGKVKLSGSVSSQYLTALLMAAPLALGDVEIEIVDKPISVPYVEMTLKLMERFGVSVEHSGDWDKFLVHGGQKYKSPGNAFVEGDASSASYFLAGAAVTGGTITVNGCGTSSLQGDVKFAEVLEKMGAKVTWSENSVTVTGPPQDSSGQKVLQGIDVNMNKMPDVAMTLAVVALFANGQTTIRDVASWRVKETERMIAICTELRKLGATVEEGPDYCVITPPEKLNVTAIDTYDDHRMAMAFSLAACGDVPVTIKDPGCTRKTFPDYFEVLERFTRH", "values": [
      {"measurement": "growth of the E. coli transformed by the EPSPS", "setting": "[1]", "result": "could grow"},
      {"measurement": "growth of the E. coli transformed by the EPSPS", "setting": "[5]", "result": "could grow"},
      {"measurement": "growth of the transformed E. coli compared with E. coli transformed by the control EPSPS named in the value", "setting": "[5]", "result": "superior to that of the E. coli transformed by the soybean EPSPS mutant G2"}
    ]},
    {"molecule": "G1: soybean EPSPS mutant, SEQ ID NO: 4, mutation L212(195)P (protein) MAAAEKPSTAPEIVLEPIKDISGTITLPGSKSLSNRILLLAALSEGTTVVDNLLYSEDIHYMLGALRTLGLRVEDDQTTKQAIVEGCGGLFPTIKESKDEINLFLGNAGTAMRPLTAAVVAAGGNASYVLDGVPRMRERPIGDLVAGLKQLGADVDCFLGTNCPPVRVNGKGGLPGGKVKLSGSVSSQYLTALLMAAPLALGDVEIEIVDKPISVPYVEMTLKLMERFGVSVEHSGDWDKFLVHGGQKYKSPGNAFVEGDASSASYFLAGAAVTGGTITVNGCGTSSLQGDVKFAEVLEKMGAKVTWSENSVTVTGPPQDSSGQKVLQGIDVNMNKMPDVAMTLAVVALFANGQTTIRDVASWRVKETERMIAICTELRKLGATVEEGPDYCVITPPEKLNVTAIDTYDDHRMAMAFSLAACGDVPVTIKDPGCTRKTFPDYFEVLERFTRH", "values": [
      {"measurement": "growth of the E. coli transformed by the EPSPS", "setting": "[1]", "result": "could grow"},
      {"measurement": "growth of the transformed E. coli compared with E. coli transformed by the control EPSPS named in the value", "setting": "[2]", "result": "obviously superior to that of the E. coli transformed by G0"}
    ]},
    {"molecule": "T0: wild-type wheat EPSPS, amino acid sequence SEQ ID NO: 14; control (protein, listed as Triticum aestivum) MATSVAAPAAPAGAEEVVLQPIREISGAVQLPGSKSLSNRILLLSALSEGTTVVDNLLNSEDVHYMLEALEALGLSVEADKVAKRAVVVGCGGRFPVEKDAKEEVKLFLGNAGTAMRPLTAAVVAAGGNATYVLDGVPRMRERPIGDLVVGLQQLGADVDCFLGTNCPPVRINGKGGLPGGKVKLSGSISSQYLSSLLMAAPLALEDVEIEIIDKLISVPYVEMTLKLMEHFGVTAEHSDSWDRFYIKGGQKYKSPGNAYVEGDASSASYFLAGAAITGGTVTVEGCGTTSLQGDVKFAEVLEMMGAKVTWTDTSVTVTGPPRQPFGRKHLKAVDVNMNKMPDVAMTLAVVALFADGPTAIRDVASWRVKETERMVAIRTELTKLGATVEEGPDYCIITPPEKLNITAIDTYDDHRMAMAFSLAACAEVPVTIRDPGCTRKTFPNYFDVLSTFVKN", "values": [
      {"measurement": "growth of the E. coli transformed by the EPSPS", "setting": "[1]", "result": "could grow"},
      {"measurement": "growth of the E. coli transformed by the EPSPS", "setting": "[2]", "result": "substantially could not grow"}
    ]}
  ]
}
